First the molecules themselves.
B1: THAP domain-containing protein 1 (Homo sapiens), Q9NVV9 (parent)
chain: MVQSCSAYGCKNRYDKDKPVSFHKFPLTRPSLCKEWEAAVRRKNFKPTKYSSICSEHFTPDCFKRECNNKLLKENAVPTIFLCTEPHDKKEDLLEPQEQLPPPPLPPPVSQVDAAIGLLMPPLQTPVNLSVFCDHNYTVEDTMHQRKRIHQLEQQVEKLRKKLKTAQQRCRRQERQLEKLKEVVHFQKEKDDVSERGYVILPNDYFEIVEVPA

Variants of B1 are the subject of one test. To be noted: with hcfc1_human HCFC1, P51610.
hcfc1_human HCFC1, P51610, sequence (P51610 whole entry): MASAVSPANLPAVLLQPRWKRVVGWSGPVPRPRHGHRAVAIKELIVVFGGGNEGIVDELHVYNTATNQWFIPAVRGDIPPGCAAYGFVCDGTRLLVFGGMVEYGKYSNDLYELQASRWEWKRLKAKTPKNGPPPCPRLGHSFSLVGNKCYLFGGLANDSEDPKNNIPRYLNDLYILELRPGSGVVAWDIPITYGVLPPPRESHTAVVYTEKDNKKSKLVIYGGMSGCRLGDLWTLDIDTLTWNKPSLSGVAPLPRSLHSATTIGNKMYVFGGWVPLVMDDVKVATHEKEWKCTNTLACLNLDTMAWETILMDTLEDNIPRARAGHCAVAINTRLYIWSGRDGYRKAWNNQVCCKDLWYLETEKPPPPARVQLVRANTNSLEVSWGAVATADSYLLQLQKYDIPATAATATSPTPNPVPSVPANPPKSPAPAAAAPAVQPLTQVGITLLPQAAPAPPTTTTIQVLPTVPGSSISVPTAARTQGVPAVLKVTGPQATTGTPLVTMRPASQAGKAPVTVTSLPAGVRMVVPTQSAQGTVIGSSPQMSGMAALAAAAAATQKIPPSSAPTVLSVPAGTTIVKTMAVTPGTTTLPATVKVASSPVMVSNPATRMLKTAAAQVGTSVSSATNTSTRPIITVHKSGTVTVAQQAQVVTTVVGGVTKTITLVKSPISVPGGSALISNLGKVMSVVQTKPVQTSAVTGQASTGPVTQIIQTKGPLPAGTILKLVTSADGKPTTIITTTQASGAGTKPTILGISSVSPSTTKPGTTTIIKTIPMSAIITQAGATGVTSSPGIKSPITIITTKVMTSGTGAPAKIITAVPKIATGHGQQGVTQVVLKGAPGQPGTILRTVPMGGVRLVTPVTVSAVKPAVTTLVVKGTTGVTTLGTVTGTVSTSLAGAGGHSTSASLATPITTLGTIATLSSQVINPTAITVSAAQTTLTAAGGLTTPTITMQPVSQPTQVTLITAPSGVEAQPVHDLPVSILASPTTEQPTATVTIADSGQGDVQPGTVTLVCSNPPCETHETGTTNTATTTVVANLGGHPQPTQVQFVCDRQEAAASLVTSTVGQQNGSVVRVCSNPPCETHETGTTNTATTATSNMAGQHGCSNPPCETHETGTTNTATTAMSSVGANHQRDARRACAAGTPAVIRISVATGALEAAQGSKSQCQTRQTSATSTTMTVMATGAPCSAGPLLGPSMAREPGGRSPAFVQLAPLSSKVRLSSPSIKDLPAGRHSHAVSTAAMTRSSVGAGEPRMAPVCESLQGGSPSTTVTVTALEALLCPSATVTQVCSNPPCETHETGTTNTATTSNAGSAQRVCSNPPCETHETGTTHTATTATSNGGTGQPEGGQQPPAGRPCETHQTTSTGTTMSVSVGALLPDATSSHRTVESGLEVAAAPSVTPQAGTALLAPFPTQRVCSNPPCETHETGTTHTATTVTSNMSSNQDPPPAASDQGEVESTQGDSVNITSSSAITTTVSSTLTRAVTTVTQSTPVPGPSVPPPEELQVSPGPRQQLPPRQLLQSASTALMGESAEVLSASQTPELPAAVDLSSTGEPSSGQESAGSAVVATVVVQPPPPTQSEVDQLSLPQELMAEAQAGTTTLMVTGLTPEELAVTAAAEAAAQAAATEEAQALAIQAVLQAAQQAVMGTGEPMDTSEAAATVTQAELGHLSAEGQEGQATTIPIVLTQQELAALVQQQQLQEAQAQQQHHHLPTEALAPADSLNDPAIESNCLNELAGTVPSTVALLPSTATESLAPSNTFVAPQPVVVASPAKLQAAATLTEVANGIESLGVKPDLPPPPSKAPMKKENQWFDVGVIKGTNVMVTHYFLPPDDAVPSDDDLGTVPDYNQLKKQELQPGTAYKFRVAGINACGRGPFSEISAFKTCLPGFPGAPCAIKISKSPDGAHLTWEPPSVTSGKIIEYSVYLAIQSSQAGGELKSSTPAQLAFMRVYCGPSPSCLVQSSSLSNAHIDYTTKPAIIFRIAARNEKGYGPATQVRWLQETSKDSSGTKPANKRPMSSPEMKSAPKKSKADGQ
Consider MVQSCSAYGCKNRYDKDKPVSFHKFPLTRPSLCKEWEAAVRRKNFKPTKYSSICSEHFTPDCFKRECNNKLLKENAVPTIFLCTEPHDKKEDLLEPQEQLPPPPLPPPVSQVDAAIGLLMPPLQTPVNLSVFCDHNCTVEDTMHQRKRIHQLEQQVEKLRKKLKTAQQRCRRQERQLEKLKEVVHFQKEKDDVSERGYVILPNDYFEIVEVPA [Y137C], for which the “effect of a mutation on the interaction” value is on record as “disrupting interaction strength”. Same read-out and setting: to MVQSCSAYGCKNRYDKDKPVSFHKFPLTRPSLCKEWEAAVRRKNFKPTKYSSICSEHFTPDCFKRECNNKLLKENAVPTIFLCTEPHDKKEDLLEPQEQLPPPPLPPPVSQVDAAIGLLMPPLQTPVNLSVFCDHSYTVEDTMHQRKRIHQLEQQVEKLRKKLKTAQQRCRRQERQLEKLKEVVHFQKEKDDVSERGYVILPNDYFEIVEVPA [N136S] belongs “disrupting interaction strength”; to MVQSCSAYGCKNRYDKDKPVSFHKFPLTRPSLCKEWEAAVRRKNFKPTKYSSICSEHFTPDCFKRECNNKLLKENAVPTIFLCTEPHDKKEDLLEPQEQLPPPPLPPPVSQVDAAIGLLMPPLQTPVNLSVFCDHKYTVEDTMHQRKRIHQLEQQVEKLRKKLKTAQQRCRRQERQLEKLKEVVHFQKEKDDVSERGYVILPNDYFEIVEVPA [N136K], “disrupting interaction strength”.

Variants of B1 are the subject of the next test. The note with it: with hcfc1_human HCFC1, P51610. This is another data set of the same source.
On to MVQSCSAYGCKNRYDKDKPVSFHKFPLTRPSLCKEWEAAVRRKNFKPTKYSSICSEHFTPDCFKRECNNKLLKENAVPTIFLCTEPHDKKEDLLEPQEQLPPPPLPPPVSQVDAAIGLLMPPLQTPVNLSVFCDHSYTVEDTMHQRKRIHQLEQQVEKLRKKLKTAQQRCRRQERQLEKLKEVVHFQKEKDDVSERGYVILPNDYFEIVEVPA [N136S], for which the “effect of a mutation on the interaction” value is listed as “decreasing interaction strength”.

These data come from IntAct's records for PubMed 28486698.
